Measured values: patent publication US20150344570A1 (published 2015)

Assays:
[1] = target: T1, FcγRIIa R extracellular domain with C-terminal His tag (human, UniProt P12318 34-217); assay: SPR (Biacore), relative FcγRIIa R binding, GpH7-B3/GpL16-k0 = 100
T1 construct: extracellular domain; also called FcgRIIa R; 2aR; not shown: His tag at the C terminus
T1 sequence (looked up): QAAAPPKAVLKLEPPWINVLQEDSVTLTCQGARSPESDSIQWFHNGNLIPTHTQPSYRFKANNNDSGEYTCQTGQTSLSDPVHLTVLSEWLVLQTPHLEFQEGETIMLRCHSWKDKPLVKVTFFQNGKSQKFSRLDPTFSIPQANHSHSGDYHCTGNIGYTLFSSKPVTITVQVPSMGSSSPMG
Description: Analysis of interaction between objective antibody and the FcγR was carried out using Biacore T100 (GE Healthcare). HBS-EP+ (GE Healthcare) was used as the running buffer, and the measurement temperature was set to 25° C. Chips produced by immobilizing the antigen peptide by the amine coupling method to a Series S Sencor Chip CM5 (GE Healthcare), or alternatively, chips produced by allowing preliminarily biotinylated antigen peptides to interact with and immobilize onto a Series S Sensor Chip SA (certified) (GE Healthcare) were used. Antibodies of interest were captured onto an antigen peptide-immobilized chip, and allowed to interact to each FcγR diluted with running buffer. To regenerate and repeatedly use the chip, the antibodies captured on the chip were washed off by reacting 10 mM glycine-HCl, pH 1.5.

[2] = target: T1, FcγRIIa R extracellular domain with …; assay: SPR (Biacore), relative FcγRIIa R binding, GpH7-A5/GpH7-B3/GpL16-k0 = 100

B1: GpH7-B3 variant S337_09D/GpL16-k0 (antibody, human IgG1, kappa)
heavy: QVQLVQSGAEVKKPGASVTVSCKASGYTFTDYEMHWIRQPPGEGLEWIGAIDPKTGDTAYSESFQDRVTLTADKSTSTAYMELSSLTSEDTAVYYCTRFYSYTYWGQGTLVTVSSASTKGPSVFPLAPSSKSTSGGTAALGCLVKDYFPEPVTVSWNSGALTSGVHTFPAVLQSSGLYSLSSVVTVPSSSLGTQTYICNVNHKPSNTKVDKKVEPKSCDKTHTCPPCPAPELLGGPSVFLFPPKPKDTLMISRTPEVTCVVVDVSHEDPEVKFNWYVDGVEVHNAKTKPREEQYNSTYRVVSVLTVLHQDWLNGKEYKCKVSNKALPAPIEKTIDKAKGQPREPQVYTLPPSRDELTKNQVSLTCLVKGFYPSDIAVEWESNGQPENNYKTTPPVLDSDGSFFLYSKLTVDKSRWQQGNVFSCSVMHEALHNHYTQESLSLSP
light: DIVMTQSPLSLPVTPGEPASISCQASESLVHSNRNTYLHWYLQKPGQSPQLLIYKVSNRFSGVPDRFSGSGSGTDFTLKISRVEAEDVGVYYCSQNTHVPPTFGQGTKVEIERTVAAPSVFIFPPSDEQLKSGTASVVCLLNNFYPREAKVQWKVDNALQSGNSQESVTEQDSKDSTYSLSSTLTLSKADYEKHKVYACEVTHQGLSSPVTKSFNRGEC
notes: homodimerized: alteration in both H chains; also called Ho Ab S337_09D
B1 was tested, and the Ho/Con_2aR [1] was 114 % of control.

B2: GpH7-A5/GpH7-B3 variant S337_02A/GpL16-k0 (antibody, human IgG1, kappa)
heavy 1: not shown
heavy 2: not shown
light: B1 light
notes: heterodimerized: alteration in one H chain only; also called He Ab S337_02A
B2 was tested, and the He/Con_2aR [2] was 105 % of control.

B3: GpH7-B3 variant T335_13S/GpL16-k0 (antibody, human IgG1, kappa)
heavy: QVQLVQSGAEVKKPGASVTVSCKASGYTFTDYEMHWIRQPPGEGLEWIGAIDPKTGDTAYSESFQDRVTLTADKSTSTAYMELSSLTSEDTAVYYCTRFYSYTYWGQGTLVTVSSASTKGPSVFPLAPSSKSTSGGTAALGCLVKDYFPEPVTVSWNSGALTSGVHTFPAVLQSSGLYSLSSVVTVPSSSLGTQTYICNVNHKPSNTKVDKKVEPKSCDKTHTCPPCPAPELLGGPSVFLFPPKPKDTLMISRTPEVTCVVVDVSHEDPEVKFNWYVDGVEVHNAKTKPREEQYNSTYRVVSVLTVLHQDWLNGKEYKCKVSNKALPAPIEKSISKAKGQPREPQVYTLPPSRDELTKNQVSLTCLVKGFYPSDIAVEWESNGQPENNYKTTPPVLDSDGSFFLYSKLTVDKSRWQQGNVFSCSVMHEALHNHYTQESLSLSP
light: B1 light
notes: homodimerized: alteration in both H chains; also called Ho Ab T335_13S
In the case of B3, the Ho/Con_2aR [1] is reported as 102 % of control.

B4: GpH7-B3 variant T335_10E/GpL16-k0 (antibody, human IgG1, kappa)
heavy: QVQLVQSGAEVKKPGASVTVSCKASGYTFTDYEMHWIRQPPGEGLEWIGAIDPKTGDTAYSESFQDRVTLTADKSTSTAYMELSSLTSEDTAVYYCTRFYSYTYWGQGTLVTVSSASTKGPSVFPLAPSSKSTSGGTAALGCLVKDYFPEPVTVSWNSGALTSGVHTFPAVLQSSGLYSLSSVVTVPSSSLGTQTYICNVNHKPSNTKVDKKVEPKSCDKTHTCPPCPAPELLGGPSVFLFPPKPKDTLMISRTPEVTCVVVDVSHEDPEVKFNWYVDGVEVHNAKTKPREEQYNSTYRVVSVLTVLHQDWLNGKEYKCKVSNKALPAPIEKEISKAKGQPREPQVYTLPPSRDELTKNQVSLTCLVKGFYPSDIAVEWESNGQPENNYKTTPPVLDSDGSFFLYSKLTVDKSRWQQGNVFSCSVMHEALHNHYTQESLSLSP
light: B1 light
notes: homodimerized: alteration in both H chains; also called Ho Ab T335_10E
With B4 the Ho/Con_2aR [1] was 109 % of control.

B5: GpH7-B3 variant S337_10E/GpL16-k0 (antibody, human IgG1, kappa)
heavy: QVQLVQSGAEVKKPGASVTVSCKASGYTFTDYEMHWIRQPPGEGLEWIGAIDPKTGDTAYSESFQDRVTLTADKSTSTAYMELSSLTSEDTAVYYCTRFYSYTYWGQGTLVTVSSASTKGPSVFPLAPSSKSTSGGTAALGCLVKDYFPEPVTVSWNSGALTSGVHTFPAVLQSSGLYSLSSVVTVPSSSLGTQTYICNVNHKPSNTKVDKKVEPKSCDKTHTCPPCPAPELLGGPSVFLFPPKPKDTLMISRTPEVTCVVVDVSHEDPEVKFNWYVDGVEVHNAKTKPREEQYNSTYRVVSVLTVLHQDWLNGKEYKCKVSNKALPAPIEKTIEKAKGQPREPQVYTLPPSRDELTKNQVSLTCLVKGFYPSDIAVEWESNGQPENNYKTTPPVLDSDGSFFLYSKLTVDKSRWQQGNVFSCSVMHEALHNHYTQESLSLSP
light: B1 light
notes: homodimerized: alteration in both H chains; also called Ho Ab S337_10E
With B5 the Ho/Con_2aR [1] was 110 % of control.

B6: GpH7-B3 variant S337_18N/GpL16-k0 (antibody, human IgG1, kappa)
heavy: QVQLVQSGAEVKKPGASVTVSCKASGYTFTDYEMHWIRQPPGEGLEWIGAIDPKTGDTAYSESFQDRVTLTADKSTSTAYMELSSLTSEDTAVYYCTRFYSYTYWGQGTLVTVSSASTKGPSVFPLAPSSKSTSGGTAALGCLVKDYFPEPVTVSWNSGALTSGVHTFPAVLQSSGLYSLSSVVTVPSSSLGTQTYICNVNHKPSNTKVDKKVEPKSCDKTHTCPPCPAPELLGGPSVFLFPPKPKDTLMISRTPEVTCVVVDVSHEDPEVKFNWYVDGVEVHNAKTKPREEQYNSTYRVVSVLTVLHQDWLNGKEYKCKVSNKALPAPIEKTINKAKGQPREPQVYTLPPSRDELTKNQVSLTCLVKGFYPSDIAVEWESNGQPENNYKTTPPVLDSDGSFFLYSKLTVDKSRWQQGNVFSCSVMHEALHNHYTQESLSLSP
light: B1 light
notes: homodimerized: alteration in both H chains; also called Ho Ab S337_18N
For B6, the Ho/Con_2aR [1] was 103 % of control.

B7: GpH7-A5/GpH7-B3 variant K334_13S/GpL16-k0 (antibody, human IgG1, kappa)
heavy 1: not shown
heavy 2: not shown
light: B1 light
notes: heterodimerized: alteration in one H chain only; also called He Ab K334_13S
In the case of B7, the He/Con_2aR [2] is reported as 109 % of control.

B8: GpH7-A5/GpH7-B3 variant S239_10E/GpL16-k0 (antibody, human IgG1, kappa)
heavy 1: not shown
heavy 2: not shown
light: B1 light
notes: heterodimerized: alteration in one H chain only; also called He Ab S239_10E
In the case of B8, the He/Con_2aR [2] is reported as 135 % of control.

B9: GpH7-A5/GpH7-B3 variant K326_20W/GpL16-k0 (antibody, human IgG1, kappa)
heavy 1: not shown
heavy 2: not shown
light: B1 light
notes: heterodimerized: alteration in one H chain only; also called He Ab K326_20W
For B9, the He/Con_2aR [2] was 131 % of control.

B10: GpH7-A5/GpH7-B3 variant G237_20W/GpL16-k0 (antibody, human IgG1, kappa)
heavy 1: not shown
heavy 2: not shown
light: B1 light
notes: heterodimerized: alteration in one H chain only; also called He Ab G237_20W
In the case of B10, the He/Con_2aR [2] is reported as 138 % of control.

B11: GpH7-A5/GpH7-B3 variant A327_10E/GpL16-k0 (antibody, human IgG1, kappa)
heavy 1: not shown
heavy 2: not shown
light: B1 light
notes: heterodimerized: alteration in one H chain only; also called He Ab A327_10E
B11 was tested, and the He/Con_2aR [2] was 110 % of control.

B12: GpH7-A5/GpH7-B3 variant P238_03V/GpL16-k0 (antibody, human IgG1, kappa)
heavy 1: not shown
heavy 2: not shown
light: B1 light
notes: heterodimerized: alteration in one H chain only; also called He Ab P238_03V
For B12, the He/Con_2aR [2] was 120 % of control.

B13: GpH7-A5/GpH7-B3 variant P331_04F/GpL16-k0 (antibody, human IgG1, kappa)
heavy 1: not shown
heavy 2: not shown
light: B1 light
notes: heterodimerized: alteration in one H chain only; also called He Ab P331_04F
B13 was tested, and the He/Con_2aR [2] was 111 % of control.

B14: GpH7-A5/GpH7-B3 variant L235_20W/GpL16-k0 (antibody, human IgG1, kappa)
heavy 1: not shown
heavy 2: not shown
light: B1 light
notes: heterodimerized: alteration in one H chain only; also called He Ab L235_20W
For B14, the He/Con_2aR [2] was 131 % of control.

B15: GpH7-A5/GpH7-B3 variant K334_10E/GpL16-k0 (antibody, human IgG1, kappa)
heavy 1: not shown
heavy 2: not shown
light: B1 light
notes: heterodimerized: alteration in one H chain only; also called He Ab K334_10E
With B15 the He/Con_2aR [2] was 106 % of control.

B16: GpH7-A5/GpH7-B3 variant P331_20W/GpL16-k0 (antibody, human IgG1, kappa)
heavy 1: not shown
heavy 2: not shown
light: B1 light
notes: heterodimerized: alteration in one H chain only; also called He Ab P331_20W
In the case of B16, the He/Con_2aR [2] is reported as 110 % of control.

B17: GpH7-A5/GpH7-B3 variant I332_06M/GpL16-k0 (antibody, human IgG1, kappa)
heavy 1: not shown
heavy 2: not shown
light: B1 light
notes: heterodimerized: alteration in one H chain only; also called He Ab I332_06M
For B17, the He/Con_2aR [2] was 109 % of control.

B18: GpH7-B3 variant T335_02A/GpL16-k0 (antibody, human IgG1, kappa)
heavy: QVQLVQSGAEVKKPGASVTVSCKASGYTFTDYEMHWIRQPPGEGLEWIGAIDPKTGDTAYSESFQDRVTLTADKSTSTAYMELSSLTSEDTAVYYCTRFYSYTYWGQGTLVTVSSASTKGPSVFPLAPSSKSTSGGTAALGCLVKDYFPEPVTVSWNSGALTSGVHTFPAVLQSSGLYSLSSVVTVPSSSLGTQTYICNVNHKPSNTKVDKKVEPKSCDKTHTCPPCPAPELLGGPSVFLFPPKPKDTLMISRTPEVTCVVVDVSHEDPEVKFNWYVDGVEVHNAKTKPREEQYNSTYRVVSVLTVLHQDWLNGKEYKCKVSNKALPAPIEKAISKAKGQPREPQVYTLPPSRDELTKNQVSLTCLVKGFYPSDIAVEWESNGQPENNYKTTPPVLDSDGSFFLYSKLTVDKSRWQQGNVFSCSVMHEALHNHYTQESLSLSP
light: B1 light
notes: homodimerized: alteration in both H chains; also called Ho Ab T335_02A
In the case of B18, the Ho/Con_2aR [1] is reported as 102 % of control.

B19: GpH7-B3 variant S337_19Q/GpL16-k0 (antibody, human IgG1, kappa)
heavy: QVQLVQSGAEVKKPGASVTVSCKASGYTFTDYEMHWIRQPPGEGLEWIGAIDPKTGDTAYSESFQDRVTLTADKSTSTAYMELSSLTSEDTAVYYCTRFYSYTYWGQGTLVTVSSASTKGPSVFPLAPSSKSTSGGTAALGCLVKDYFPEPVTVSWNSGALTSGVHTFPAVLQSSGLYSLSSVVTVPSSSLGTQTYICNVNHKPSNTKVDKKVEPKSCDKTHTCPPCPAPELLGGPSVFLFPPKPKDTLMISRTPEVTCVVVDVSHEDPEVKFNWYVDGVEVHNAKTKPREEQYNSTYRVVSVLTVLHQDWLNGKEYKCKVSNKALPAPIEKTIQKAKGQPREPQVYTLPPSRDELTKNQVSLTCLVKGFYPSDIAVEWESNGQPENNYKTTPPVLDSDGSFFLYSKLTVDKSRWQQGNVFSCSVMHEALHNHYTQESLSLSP
light: B1 light
notes: homodimerized: alteration in both H chains; also called Ho Ab S337_19Q
In the case of B19, the Ho/Con_2aR [1] is reported as 102 % of control.

B20: GpH7-A5/GpH7-B3 variant P331_16H/GpL16-k0 (antibody, human IgG1, kappa)
heavy 1: not shown
heavy 2: not shown
light: B1 light
notes: heterodimerized: alteration in one H chain only; also called He Ab P331_16H
With B20 the He/Con_2aR [2] was 114 % of control.

B21: GpH7-A5/GpH7-B3 variant K334_04F/GpL16-k0 (antibody, human IgG1, kappa)
heavy 1: not shown
heavy 2: not shown
light: B1 light
notes: heterodimerized: alteration in one H chain only; also called He Ab K334_04F
With B21 the He/Con_2aR [2] was 110 % of control.

B22: GpH7-A5/GpH7-B3 variant K326_15Y/GpL16-k0 (antibody, human IgG1, kappa)
heavy 1: not shown
heavy 2: not shown
light: B1 light
notes: heterodimerized: alteration in one H chain only; also called He Ab K326_15Y
In the case of B22, the He/Con_2aR [2] is reported as 136 % of control.

B23: GpH7-A5/GpH7-B3 variant K326_07I/GpL16-k0 (antibody, human IgG1, kappa)
heavy 1: not shown
heavy 2: not shown
light: B1 light
notes: heterodimerized: alteration in one H chain only; also called He Ab K326_07I
For B23, the He/Con_2aR [2] was 147 % of control.

B24: GpH7-A5/GpH7-B3 variant S267_19Q/GpL16-k0 (antibody, human IgG1, kappa)
heavy 1: not shown
heavy 2: not shown
light: B1 light
notes: heterodimerized: alteration in one H chain only; also called He Ab S267_19Q
For B24, the He/Con_2aR [2] was 135 % of control.

B25: GpH7-A5/GpH7-B3 variant S267_06M/GpL16-k0 (antibody, human IgG1, kappa)
heavy 1: not shown
heavy 2: not shown
light: B1 light
notes: heterodimerized: alteration in one H chain only; also called He Ab S267_06M
B25 was tested, and the He/Con_2aR [2] was 122 % of control.

B26: GpH7-A5/GpH7-B3 variant S267_03V/GpL16-k0 (antibody, human IgG1, kappa)
heavy 1: not shown
heavy 2: not shown
light: B1 light
notes: heterodimerized: alteration in one H chain only; also called He Ab S267_03V
B26 was tested, and the He/Con_2aR [2] was 116 % of control.

B27: GpH7-A5/GpH7-B3 variant G237_04F/GpL16-k0 (antibody, human IgG1, kappa)
heavy 1: not shown
heavy 2: not shown
light: B1 light
notes: heterodimerized: alteration in one H chain only; also called He Ab G237_04F
In the case of B27, the He/Con_2aR [2] is reported as 126 % of control.
